Experimental data as given in US20190248900A1 (Y BIOLOGICS, published 2019).
Positions count from the first letter of the chain named.

B1: PD1-41C9 (antibody, V domains shown)
VH: QMQLVESGGGVVQPGRSLRLSCAASGFTFSSYAMHWVRQAPGKGLEWVAVISYDGSNKYYADSVKGRFTISRDNSKNTLYLQMNRLRSEDTAVYYCTTTTFDSWGQGTLITVSS
VL: DIVMTQTPLSLPVTPGEAASISCRSSQSLLDSEDGNTYLDWYLQKPGQSPQLLIYTLSHRASGVPDRFSGSGSGTDFTLKISRVAAEDVGLYYCLQRMGFPYTFGQGTKLDIK
notes: scFv-phage in the screening ELISA; whole IgG in the other assays
B2: PD1-49A2 (antibody, V domains shown)
VH: B1 VH with M2V, S75P, R85S, S88A, Q106R, I110V
VL: B1 VL with T7S, A18P, L30F, E33D, A85E, L91I, L110V, D111E
notes: scFv-phage in the screening ELISA; whole IgG in the other assays; also called Parent 49A2
B3: PD1-45D6 (antibody, V domains shown)
VH: QVQLVESGGGVVQPGRSLRLSCAASGFTFSSYAMHWVRQVPGKGLEWVAVISYDGNDKYYADSVKGRFTISRDNSKNTLYLQMNSLRAEDTAVYYCVPTTFEYWGQGSQVTVSS
VL: DIVMTQTPLSLPVTPGEAASISCRSSQSLLDSDDGKTYLDWYLQKPGQSPQLLIYTLSYRASGVPDRFSGSGSGTEFNLRISRVEAEDVGIYYCMQRVEFPFTFGQGTKLDIK
notes: as for B1
B4: PD1-52E8 (antibody, V domains shown)
VH: QVQLVQSGGNLVQPGRSLRLSCAASGFTFDDYAMHWVRQAPGKGLEWVSGISWNSGTPGYADSVQGRFTISRDNAKNSLYLQMNSLRAEDTAVYYCARGHNYLDSSYYDYWGQGTLVTVSS
VL: SYELTQPLSLSVAPGQTARITCSGDALSKEYSYWYQQKPGQAPVLVMYKDSERPSGIPERFSGSSSGTTVTLTISGVQAEDEADYYCQSVDSSDTSVVFGGGTKLTVL
notes: as for B1

Each binder was assayed against human PD-1 (NM_005018.2) over-expressed on cells (human, UniProt Q15116 25-288) (assay: cell-based or functional assay).
Chain of human PD-1 (NM_005018.2) over-expressed on cells (Q15116 25-288): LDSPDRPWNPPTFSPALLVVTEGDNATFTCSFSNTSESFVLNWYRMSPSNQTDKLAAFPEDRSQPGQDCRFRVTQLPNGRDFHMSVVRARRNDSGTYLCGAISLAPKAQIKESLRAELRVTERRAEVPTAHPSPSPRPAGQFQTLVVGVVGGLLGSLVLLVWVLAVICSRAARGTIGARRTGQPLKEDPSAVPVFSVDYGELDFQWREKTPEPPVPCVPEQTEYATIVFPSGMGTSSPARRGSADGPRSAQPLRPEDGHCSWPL
For B1, the EC50 was 3.57 nM.
In the case of B2, the EC50 is reported as 2.05 nM.
Work on B3 yielded an EC50 of 1.29 nM.

The binders below were run against T1, M3 (assay: scFv-phage ELISA).
T1 construct: also called PD1 mutant M3
For B1, the OD490 was 2.3.
B2 showed an OD490 of 3.4.
Work on B3 yielded an OD490 of 3.8.
B4 gave an OD490 of 1.5.

Each binder was assayed against T2, M1-2 (assay: scFv-phage ELISA).
T2 construct: also called PD1 mutant M1-2
In the case of B1, the OD490 is reported as 3.2.
For B2, the OD490 was 3.8.
Binder B3 has an OD490 of 3.9.
B4 showed an OD490 of 3.6.

The binders below were run against T3, M5 (assay: scFv-phage ELISA).
T3 construct: also called PD1 mutant M5
For B1, the OD490 was 2.3.
In the case of B2, the OD490 is reported as 1.2.
B3 showed an OD490 of 3.6.
Work on B4 yielded an OD490 of 0.5.

Each binder was assayed against T4, M8 (assay: scFv-phage ELISA).
T4 construct: also called PD1 mutant M8
Binder B1 has an OD490 of 2.5.
In the case of B2, the OD490 is reported as 3.
B3 gave an OD490 of 3.8.
For B4, the OD490 was 0.6.

These binders were tested against T5, M2-1 (assay: scFv-phage ELISA).
T5 construct: also called PD1 mutant M2-1
With B1 the OD490 was 3.4.
Work on B2 yielded an OD490 of 3.7.
B3 showed an OD490 of 3.9.
Binder B4 has an OD490 of 2.9.

Each binder was assayed against T6, M10 (assay: scFv-phage ELISA).
T6 construct: also called PD1 mutant M10
B1 showed an OD490 of 3.4.
B2 gave an OD490 of 2.6.
B3 gave an OD490 of 3.9.
B4 showed an OD490 of 1.

The binders below were run against T7, M12 (assay: scFv-phage ELISA).
T7 construct: also called PD1 mutant M12
B1 gave an OD490 of 3.1.
For B2, the OD490 was 3.9.
B3 gave an OD490 of 3.9.
Work on B4 yielded an OD490 of 3.2.

The binders below were run against T8, M6 (assay: scFv-phage ELISA).
T8 construct: also called PD1 mutant M6
B1 showed an OD490 of 3.6.
B2 gave an OD490 of 3.9.
Binder B3 has an OD490 of 3.9.
With B4 the OD490 was 3.4.

What follows are binders tested against T9, M4 (assay: scFv-phage ELISA).
T9 construct: also called PD1 mutant M4
B1 gave an OD490 of 3.2.
Work on B2 yielded an OD490 of 3.9.
B3 showed an OD490 of 3.9.
B4 gave an OD490 of 3.7.

Each binder was assayed against T10, M7-2 (assay: scFv-phage ELISA).
T10 construct: also called PD1 mutant M7-2
B1 gave an OD490 of 3.
Binder B2 has an OD490 of 2.2.
B3 was tested, and the OD490 was 4.
B4 gave an OD490 of 3.9.

What follows are binders tested against T11, M1-1 (assay: scFv-phage ELISA).
T11 construct: also called PD1 mutant M1-1
In the case of B1, the OD490 is reported as 3.1.
With B2 the OD490 was 3.4.
Binder B3 has an OD490 of 3.8.
Work on B4 yielded an OD490 of 1.5.

Each binder was assayed against T12, antigen PD1 (coated, construct not stated) (UniProt Q15116 25-170, limits assumed) (assay: scFv-phage ELISA).
T12 construct: also called PD1 antigen; PDCD1
T12 sequence (Q15116 25-170 limits assumed): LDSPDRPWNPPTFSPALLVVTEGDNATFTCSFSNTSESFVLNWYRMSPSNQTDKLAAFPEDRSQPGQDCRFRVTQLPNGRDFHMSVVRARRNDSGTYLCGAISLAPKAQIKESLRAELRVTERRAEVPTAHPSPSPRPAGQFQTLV
With B1 the OD490 was 3.2.
For B2, the OD490 was 3.6.
B3 showed an OD490 of 3.8.
B4 gave an OD490 of 0.4.

The binders below were run against T13, M13 (assay: scFv-phage ELISA).
T13 construct: also called PD1 mutant M13
With B1 the OD490 was 3.6.
B2 was tested, and the OD490 was 3.9.
B3 showed an OD490 of 4.
Binder B4 has an OD490 of 3.9.

These binders were tested against T14, M5-2 (assay: scFv-phage ELISA).
T14 construct: also called PD1 mutant M5-2
B1 gave an OD490 of 3.6.
Work on B2 yielded an OD490 of 3.8.
For B3, the OD490 was 3.9.
B4 gave an OD490 of 3.5.

These binders were tested against T15, ITGA6-Fc (assay: scFv-phage ELISA).
T15 construct: Fc fusion
T15 sequence (P23229 whole entry, species assumed, looked up): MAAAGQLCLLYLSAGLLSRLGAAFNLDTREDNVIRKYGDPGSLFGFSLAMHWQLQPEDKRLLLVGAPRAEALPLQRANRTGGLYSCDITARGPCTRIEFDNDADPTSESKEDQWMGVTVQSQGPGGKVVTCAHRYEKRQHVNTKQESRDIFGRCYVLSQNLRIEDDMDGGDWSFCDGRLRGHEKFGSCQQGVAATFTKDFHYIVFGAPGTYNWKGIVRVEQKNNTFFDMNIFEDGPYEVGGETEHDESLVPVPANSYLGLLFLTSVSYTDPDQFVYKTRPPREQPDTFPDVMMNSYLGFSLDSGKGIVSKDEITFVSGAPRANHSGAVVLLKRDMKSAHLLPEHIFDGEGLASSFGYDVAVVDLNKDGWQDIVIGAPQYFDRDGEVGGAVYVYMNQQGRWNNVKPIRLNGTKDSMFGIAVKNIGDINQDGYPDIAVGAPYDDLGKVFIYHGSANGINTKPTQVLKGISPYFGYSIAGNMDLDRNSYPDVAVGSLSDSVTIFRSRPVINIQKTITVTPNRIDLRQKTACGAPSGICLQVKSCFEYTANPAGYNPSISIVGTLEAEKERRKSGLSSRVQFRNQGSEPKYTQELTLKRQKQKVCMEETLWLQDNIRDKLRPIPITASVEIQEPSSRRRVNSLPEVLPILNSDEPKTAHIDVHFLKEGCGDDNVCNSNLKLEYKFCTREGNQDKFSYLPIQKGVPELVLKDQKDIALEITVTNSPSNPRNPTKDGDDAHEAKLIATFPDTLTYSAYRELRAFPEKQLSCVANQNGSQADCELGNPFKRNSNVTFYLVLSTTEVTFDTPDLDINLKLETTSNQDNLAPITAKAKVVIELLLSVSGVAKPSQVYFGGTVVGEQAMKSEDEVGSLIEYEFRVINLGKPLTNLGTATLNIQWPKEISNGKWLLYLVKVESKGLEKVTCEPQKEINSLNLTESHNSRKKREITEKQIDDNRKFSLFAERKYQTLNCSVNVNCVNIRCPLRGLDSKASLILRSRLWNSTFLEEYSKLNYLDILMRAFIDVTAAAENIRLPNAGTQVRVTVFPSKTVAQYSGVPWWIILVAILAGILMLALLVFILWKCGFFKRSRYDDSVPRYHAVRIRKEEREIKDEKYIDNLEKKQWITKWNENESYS
With B1 the OD490 was 0.5.
Work on B2 yielded an OD490 of 0.2.
Binder B3 has an OD490 of 0.5.
B4 was tested, and the OD490 was 0.1.

What follows are binders tested against T16, M2-2 (assay: scFv-phage ELISA).
T16 construct: also called PD1 mutant M2-2
With B1 the OD490 was 3.2.
B2 gave an OD490 of 3.8.
B3 gave an OD490 of 3.8.
In the case of B4, the OD490 is reported as 3.4.

Each binder was assayed against T17, M1 (assay: scFv-phage ELISA).
T17 construct: also called PD1 mutant M1
With B1 the OD490 was 3.2.
With B2 the OD490 was 3.
B3 was tested, and the OD490 was 4.
B4 showed an OD490 of 1.4.

Each binder was assayed against T18, M11 (assay: scFv-phage ELISA).
T18 construct: also called PD1 mutant M11
Binder B1 has an OD490 of 0.9.
In the case of B2, the OD490 is reported as 0.4.
Binder B3 has an OD490 of 0.7.
Binder B4 has an OD490 of 0.2.

What follows are binders tested against T19, M5-1 (assay: scFv-phage ELISA).
T19 construct: also called PD1 mutant M5-1
B1 was tested, and the OD490 was 2.8.
For B2, the OD490 was 0.7.
B3 was tested, and the OD490 was 3.8.
B4 gave an OD490 of 0.3.

These binders were tested against T20, M2 (assay: scFv-phage ELISA).
T20 construct: also called PD1 mutant M2
B1 gave an OD490 of 0.8.
Work on B2 yielded an OD490 of 0.3.
Binder B3 has an OD490 of 0.4.
B4 showed an OD490 of 0.2.

The binders below were run against T21, M7 (assay: scFv-phage ELISA).
T21 construct: also called PD1 mutant M7
Binder B1 has an OD490 of 0.8.
B2 was tested, and the OD490 was 0.4.
B3 showed an OD490 of 0.5.
B4 was tested, and the OD490 was 1.

The binders below were run against T22, M9 (assay: scFv-phage ELISA).
T22 construct: also called PD1 mutant M9
For B1, the OD490 was 3.3.
For B2, the OD490 was 3.7.
With B3 the OD490 was 3.8.
Work on B4 yielded an OD490 of 2.4.

The binders below were run against T23, M14 (assay: scFv-phage ELISA).
T23 construct: also called PD1 mutant M14
Binder B1 has an OD490 of 3.5.
B2 was tested, and the OD490 was 3.9.
With B3 the OD490 was 3.9.
With B4 the OD490 was 2.6.

What follows are binders tested against T24, M7-1 (assay: scFv-phage ELISA).
T24 construct: also called PD1 mutant M7-1
For B1, the OD490 was 1.2.
B2 showed an OD490 of 0.5.
B3 gave an OD490 of 1.3.
Work on B4 yielded an OD490 of 1.1.
